Experiment [1] addresses T1, His-TvMIF (T. vaginalis macrophage migration inhibitory factor) (Trichomonas vaginalis, UniProt A2DXT4).
T1 construct: gene TVAG_219770; ~15 kDa monomer; trimer in crystal (8ur2: dimer of trimers)
Briefly: X-ray crystal structure, co-crystallization, […] A. Type of experiment: binding. Conditions: 5 mM sodium pyruvate, pH 7.0 protein buffer, reservoir pH 8.5, 291 K; non-canonical site at Asp68, not the tautomerase site (blocked by N-terminal tag); possibly a crystallization artifact.

The target in experiment [2] is N-terminally hexahistidine-tagged Trichomonas vaginalis macrophage migration inhibitory factor (Trichomonas vaginalis ATCC PRA-98/G3). Briefly: crystal structure; His-TvMIF co-crystallized with 5 mM sodium pyruvate, Morpheus B12, 291 K, space group I4(1) (PDB 8ur2); six monomers.
For experiment [3] the target is unchanged. Briefly: crystal structure; His-TvMIF crystallized at 291 K by sitting-drop vapor diffusion; apo P4(1)2(1)2 form (PDB 8uz4) and I4(1)22 form from an attempt at co-crystallization with 5 mM sodium 4-hydroxyphenylpyruvate (PDB 8ur4); three monomers per asymmetric unit.

For `CC(=O)C(=O)O` [pyruvate], in experiment [1], the “X-ray crystal structure, co-crystallization, 1.90 A” value is recorded as “The Fo − Fc omit electron-density maps of PDB entry 8ur2 can be modeled with pyruvate”.

Consider “N-terminally hexahistidine-tagged Trichomonas vaginalis macrophage migration inhibitory factor (natural protein)”, for which the stoichiometry N (in general, the number of molecules, sites or subunits per partner or assembly) in experiment [2] is 6; in experiment [3], 3.

The record behind these values is paper PMC11614108, “Structures of Trichomonas vaginalis macrophage migratory inhibitory factor” (Acta Crystallographica Section F: Structural Biology …, 2024).
